Results from paper PMC9481538, “The interaction between LC8 and LCA5 reveals a novel oligomerization function of LC8 in the ciliary-centrosome system” (Scientific Reports, 2022).
Residue numbers refer to the chain shown, from its start.

B1: sLCA5-WT: truncated LCA5 96–430 fused to an N-terminal MBP tag (protein)
chain: DTDLVTKRILSARLLKINELQNEVSELQVKLAELLKENKSLKRLQYRQEKALNKFEDAENEISQLIFRHNNEITALKERLRKSQEKERATEKRVKDTESELFRTKFSLQKLKEISEARHLPERDDLAKKLVSAELKLDDTERRIKELSKNLELSTNSFQRQLLAERKRAYEAHDENKVLQKEVQRLYHKLKEKERELDIKNIYSNRLPKSSPNKEKELALRKNAACQSDFADLCTKGVQTMEDFKPEEYPLTPETIMCYENKWEEPGHLTLDLQSQKQDRHGEAGILNPIMEREEKFVTDEELHVVKQEVEKLEDEWEREELDKKQKEKASLLER
modifications: left off: MBP, N-terminal, kept | His6, C-terminal, kept
notes: truncated LCA5 96–430 fused to an N-terminal MBP tag
B2: sLCA5-ΔVQT: sLCA5 with the three core residues VQT exchanged for three alanines (protein)
chain: B1 chain with V238A, Q239A, T240A
modifications: left off: MBP, N-terminal, kept | His6, C-terminal, kept
notes: sLCA5 with the three core residues VQT exchanged for three alanines
B3: sLCA5-ΔCQS-ΔVQT: double mutant sLCA5, both LC8 binding motifs mutated (protein)
chain: B1 chain with C226A, Q227A, S228A, V238A, Q239A, T240A
modifications: left off: MBP, N-terminal, kept | His6, C-terminal, kept

Legend:
[1] = negative staining transmission electron microscopy of sLCA5-LC8 complexes; type: physicochemical
Experimental: For TEM negative staining experiments, a JEOL JEM-1011 (JEOL Ltd., Tokyo, Japan) electron microscope was used. The purified LCA5-LC8 complexes or LC8 or LCA5 forms alone were put together by using LCA5-WT or the single or double mutants at 30 μM and LC8 at 150 μM concentration in a buffer of 20 mM Tris 70 mM NaCl, pH 7.4, and incubated at 37 °C for 1 h. The complexes were diluted to a final 0.2 mg/ml concentration in the buffer and applied to 300 mesh formvar/carbon-coated copper grids (SPI Inc., USA). After 2 min of incubation the surplus was removed by filter paper and 1% uranyl acetate was applied for 1 min as negative staining. Images were taken around the middle of the grid at 5000, 50,000, 150,000 and 300,000-fold magnification. The collected data was analyzed by Fiji ImageJ software, and the statistical analysis was carried out in Origin 8 software.

[2] = target: T1, LC8 (Homo sapiens, UniProt Q96FJ2); test: isothermal titration calorimetry, sLCA5 fragments titrated with LC8; type: binding; conditions: PBS pH 7.4, 1 mM TCEP, 37 °C; for − TΔS: ITC, MBP-fused sLCA5 titrated with LC8
T1 construct: 6xHis (N); made in house; host or cells: E. coli BL21 (DE3) Rosetta
T1 sequence (Q96FJ2 whole entry, the tested form may be a part): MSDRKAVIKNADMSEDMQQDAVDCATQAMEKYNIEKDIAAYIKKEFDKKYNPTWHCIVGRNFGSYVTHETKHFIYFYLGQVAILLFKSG
Experimental: LC8 and MBP-fused LCA5 constructs were prepared in PBS supplemented with 1 mM TCEP. Before measurement, protein samples were dialyzed overnight in PBS pH 7.4 (Orange Scientific, OrDial D14 membrane). Peptides were diluted from stock with the buffer used for dialysis. The concentration of samples was determined based on absorbance at 280 nm in the case of proteins, and 205 nm for the peptide. Experiments were performed using MicroCal PEAQ-ITC (Malvern Panalytical), LCA5 peptides were measured at 25 °C, proteins were analyzed at 37 °C. Lebercilin peptide was injected into the cell 18 times 2 μl volumes, with 5 min timing between injections. In case of the protein, LCA5 was placed in the sample cell, and LC8 was injected during 37 injections, 1 μl each. The results were evaluated using MicroCal PEAQ-ITC Analysis Software.

[3] = CD thermal denaturation; type: physicochemical; conditions: CD at 222 nm, 10–80 °C; for melting temperature Tm: 1 °C/min, two-state fit, without or with LC8 as label shows; for increase in melting temperature on LC8 binding: sLCA5 in complex with LC8 vs without
Experimental: (§1) CD experiments were carried out on a Jasco J-810 spectropolarimeter using a 1 mm quartz cuvette. For the spectra of the individual constructs, 8 scans were recorded and averaged between 200 nm or 190 nm and 260 nm (in continuous scanning mode, data pitch: 0.2 nm, scanning speed: 50 nm/min, response: 2 s, bandwidth: 2 nm). sLCA5-WT and the mutants were measured at 0.1 mg/ml concentration. 1.2 μM LCA5 and 6 μM LC8 were complexed and analyzed. The spectra of LC8 at a concentration of 6 μM was recorded under the same experimental conditions as described before and subtracted from the individual CD spectra of the sLCA5-LC8 complexes. The baseline subtracted data were evaluated using the BeStSel web-server (http://bestsel.elte.hu/index.php)[46],[47]. Thermal denaturation experiments were recorded at 222 nm between 10 and 80 °C using 1 °C/min heating rate. The thermal denaturation profile was fitted according to the Gibbs–Helmholtz equation assuming a two-state model as described by Shih et al[48]. After fitting, the curves were normalized by the following equation. y=-m^∘-An-T∗mn/Ad-An+md-mnT-1 where y is the ratio of native and unfolded state, An and Ad are the initial values of the Gibbs–Helmholtz equation belong to the native and denatured state, mn and md are the slopes belong to the An and Ad values, m° is the measured CD value in millidegree and T is the temperature in °C.

[4] = analytical gel filtration; type: physicochemical
Experimental: (§2) For analytical gel filtration a Superose 6 Increase 10/300 (Cytiva) was used with an effective resolution between 5–5000 kDa range and a void volume above 5000 kDa. The column was equilibrated in DPBS supplemented with 200 μM TCEP. The calibration curve was fitted on the chromatogram of gel filtration standard mix (BioRad) with the addition of Dextran Blue to determine the void volume. 100 μl of LCA5 purified protein or LCA5-LC8 complex was injected at the concentration of 30 μM for LCA5 and 150 μM for LC8, with a flow rate of 500 μl/min immediately or after 60 min of incubation at 37 °C. For densitometric analysis, fractions were collected and 200 μl of samples were precipitated in 1.8 ml 96% ethanol at − 80 °C for 2 h. The samples were centrifugated for 30 min at 14,000 g, and dissolved in 15 μl of SDS sample buffer. 10 μl of each sample was run on Tricine-SDS gel. The calibration of the densitometry was performed on samples of known molar ratio of sLCA5 construct and LC8 (see the original gel used for calibration on Suplementary Fig. S16). Data evaluation was performed by using Origin 8 software and Fiji ImageJ software.

[5] = tested on: GST-fused LC8; test: GST pull-down of LC8 and sLCA5; type: binding; conditions: GST-LC8 bait, MBP-, 6x-His-fused sLCA5 prey, PBS, 1 mM DTT, room temperature; result in words
Experimental: For the pull-down experiments, GST-fused LC8 was used as bait, and MBP-, 6x-His-fused LCA5 variants as prey. For controls, GST and MBP were used. Proteins were expressed in 100 ml cultures of E. coli BL21 (DE3) Rosetta cells as described above. Cells were harvested, resuspended in 5 ml PBS supplemented with 1 mg/ml lysozyme and 1 mM DTT, sonicated and clarified by centrifugation. 20 μl of Glutathione Sepharose 4B (Macherey–Nagel) (75%) resin was used for each experiment. Baits were incubated with the resin for 1 h at room temperature, then washed with PBS supplemented with 1 mM DTT. Prey proteins were added and incubated for one hour. The beads were washed and eluted by boiling in a 2 × SDS sample buffer and analyzed in tricine SDS page according to the protocol of Schagger et al[43].

[6] = target: T1, LC8; test: composition of complexes of LC8 binding partners (Supplementary Table S1); conditions: this paper's constructs
From the text: Number of LC8 Number of Ratio of LCA5
LC8 binding monomeric binding monomeric LC8 in monomers to LC8
Gene name sites partners in complex complex monomers
Supplementary Table S1. Stoichiometries of various LC8 binding partners in complex with LC8. Known LC8 binding partners according to literature data always form dimers upon LC8 binding. The stoichiometry is basically 1:1 in case of one LC8 binding site,where 2 monomeric partners are dimerized by binding one dimeric LC8. This ratio could increase up to 1:11 in case of ASCIZ where the dimeric ASCIZ possibly could bind 11 LC8 dimers in […]
occupied. According to our ITC and CD spectroscopy data, we proposed a very different binding model where the LCA5 forms likely […] alone and LC8 could interconnect this dimerized, moreover the possible binding sites are not fully occupied. […]
and 1:1 ratio case of single mutant LCA5 construct where one binding site presented and in case of wild type LCA5 where 2 binding sites presented, respectively.

[7] = CD spectroscopy, helical content; type: physicochemical
Experimental: as §1, with “°C. […]” for “°C.”

[8] = target: T1, LC8; test: SDS-PAGE densitometric analysis of gel filtration fractions (sLCA5:LC8 molar ratio); type: binding; conditions: SDS-PAGE densitometry; result in words
Experimental: as §2

Molecule	measured diameter median of spherical complexes ([1]; 30 μM sLCA5 + 150 μM LC8, 37 °C 1 h, 20 mM Tris 70 mM NaCl pH 7.4)	increase in size of complexes vs sLCA5-ΔCQS complexes ([1]; TEM diameters with LC8, significant by two sample t-test, p = 0.05)	− TΔS [2]	melting temperature Tm [3]	increase in melting temperature on LC8 binding [3]	estimated molar mass (gel filtration) ([4]; Superose 6 Increase 10/300, DPBS, 200 μM TCEP, void volume above 5000 kDa, listed as wild-type LCA5 construct)	void fraction (higher order oligomers) ([4]; gel filtration void volume, result in words)	increase of the difference between incubated wild type and sLCA5-ΔCQS complexes ([4]; void fraction, prolonged incubation with LC8)	stronger propensity to form higher order oligomers vs sLCA5-ΔCQS ([4]; void volume fraction size, with LC8 in fivefold molar excess)	void fraction increment on incubation ([4]; with LC8, 60 min at 37 °C vs non-incubated complex)	interaction with LC8 (GST pull-down) [5]	LC8 binding sites [6]	molar ellipticity curve upon addition of LC8 ([7]; 20 °C, LC8 in fivefold molar excess, vs sLCA5-WT without LC8, result in words)	helical structures preserved at higher temperatures ([7]; CD, BeStSel, 20 vs 40 °C, in the presence of LC8, LC8 and MBP-tag subtracted)	LC8 content of fraction [8]	measurable interaction with LC8 (ITC) ([2]; titrated with LC8, result in words)
B1	~ 39 nm	20%	3.28 kcal/mol	41,1 °C	~ 5 °C	~ 610 kDa	remarkable increase in the void volume fraction	~ 3.5 fold	~ 20%	324%	can bind LC8	2	remained the same	80%	–	–
B2	–	–	4.32 kcal/mol	–	–	–	–	–	–	–	did not abolish the interaction with LC8	–	–	–	only a trace amount of LC8	–
B3	–	–	–	40,7 °C	no similar increase was observed	–	–	–	–	–	abolished the interaction with LC8	–	–	–	unable to bind LC8	did not show any measurable interaction
